These results are taken from patent publication US20070071681A1, “Apparatus and method for computer modeling type 1 diabetes” (Entelos, Inc., priority 2005, published 2007).

Assay [1] has as its system average virtual NOD mouse. The experiment in a line: Simulation of therapy protocols in the average virtual NOD mouse (computer model of type 1 diabetes). To be noted: IL-10; Pennline 1994 protocol; at 28 wks; expectation from published data. An excerpt:
One application of a NOD mouse type 1 diabetes model is to improve understanding of type 1 diabetes pathogenesis in the NOD mouse. Model development therefore focused on islet β cell autoimmunity and tolerance, as well as related mechanisms and interventions. To provide for general immunologic function and not only progression to diabetes, the development effort included representation of several NOD mouse phenotypes. The first phenotype was an average diabetic virtual mouse. […] Typically, a simulation of the average virtual mouse concludes shortly after diabetes diagnosis, which is consistent with post-diabetic sacrifice of NOD mice in the laboratory. […] Additional virtual mice, each with different clinical behaviors and/or underlying pathophysiologies, have also been generated. Similarly, development of modals of type 1 diabetes in other mammals, such as humans, can include the development of various virtual patients representing normal animals or animals having varying degrees of severity or progression of type 1 diabetes.
Because diabetes is typically assessed by measuring blood or urinary glucose, blood glucose levels were represented in the model's clinical read-out. Hyperglycemia (a diabetes indicator) was defined as a glucose level in excess of a commonly used standard (e.g., 200, 250, 300, 350 mg/dl). […]

In assay [2] the test system is NOD mouse. To be noted: cited from earlier work.

B1: IL-10: exogenous recombinant human IL-10 (protein, UniProt P22301 19-178, looked up)
Interleukin-10: SPGQGTQSENSCTHFPGNLPNMLRDLRDAFSRVKTFFQMKDQLDNLLLKESLLEDFKGYLGCQALSEMIQFYLEEVMPQAENQDPDIKAHVNSLGENLKTLRLRLRRCHRFLPCENKSKAVEQVKNAFNKLQEKGIYKAMSEFDIFINYIEAYMTMKIRN
With B1, in assay [1], the “Expected virtual mouse outcome” value is given as “No diabetes at 28 wks”. Besides, the Incidence in assay [2] (IL-10, Pennline 1994, Rx 9-24 wks, 1 μg recombinant human IL-10 daily, 15 wks, at 28 wks, vs 85% control) is 25% vs. 85% control at 28 wks. The Insulitis entry in assay [2] (IL-10, Pennline 1994) is listed as “Reduced severity of insulitis”. Moreover, the Disease progression result in assay [2] (IL-10 delivered in various ways) was “protect against disease progression”.
